“Also recorded” adds a separate entry of the source.

Data set [1] concerns BMDMs. Put plainly: GSH/GSSG assay in LPS-primed BMDMs. Type of data set: cell-based, mouse. As to conditions: LPS-primed (100 ng/mL) BMDMs, 5 µM CCTV vs vehicle, 8 experiments.
Data set [2] is described as follows: Dynamic light scattering of nanoparticles. Type of data set: physicochemical. As to conditions: Malvern Zetasizer Nano S; for Size (Mean Z average): hydrodynamic diameter. On the procedure: Lipid-peptide conjugates were synthesized from either DSPE-PEG-CO2H or DSPE-PEG-MAL using peptides derived using SVM prediction platform and listed in Supplementary Table S2. The peptides were conjugated to either the N-terminus or via sulfhydryl groups as depicted in Figure 1E. Lipid films from both PEGylated derivatives were prepared by evaporation under nitrogen gas, from 1 µM of lipid solution in chloroform. Tetrapeptides were custom-synthesized by Genscript. 5 µmol of peptide solutions in water:dimethylformamide (1:1) were prepared via a brief bath sonication. […] PEGylated lipids prepared above were sonicated (10 min, 300 W, room temperature) in 5 mL of MES (pH 6, 100 mM) for DSPE-PEG-CO2H and in 5 mL of HEPES buffered saline [HBS] (pH 7.2, 100 mM, 154 mM NaCl) for DSPE-PEG-MAL. Next, DSPE-PEG-CO2H was activated by the addition of 2 mg of EDC (20 mg/mL in water) and 5 mg of sulfo-NHS (10 mg/mL in water). This was sonicated at 15 W for 10 min in a temperature controlled bath at 30 °C. Then, peptide solutions/suspensions were added to the resulting DSPE-PEG-NHS or previously prepared DSPE-PEG-MAL and stirred at room temperature for 4 h. The reaction with DSPE-PEG-NHS was quenched by the addition of 100 µL of 0.5 M of NH2OH in HBS, plus 1 mM EDTA. The reaction with DSPE-PEG-MAL was quenched by the addition of 7 µL of 2-mercaptoethanol. The solution was freezed at -80 °C and lyophilized. Next, lipid-peptide conjugates were extracted with chloroform (3 x 2 mL) and centrifuged at 4000 g x 5 min. Combined extract supernatants were evaporated under N2 gas and sonicated (10 min, 100 W) in 0.5-1 mL of water at room temperature. This raw product was purified by size […] chromatography as follows. Millipore Vantage column (10 x 500 mm) was packed with Sepharose 4B in deionized water under flow rate of 0.5 mL/min. Next, 0.5 mL of raw nanoparticle preparation was injected into the column and 0.5 mL fractions were collected at 0.5 mL/min simultaneously with UV detection at 190, 214, 250 and 280 nm using the Bio Rad DuoFlow system equipped with BioLogic QuadTec UV/Vis detector. See Supplementary Figure S2 for representative chromatograms. Combined fractions 15-31 were frozen and lyophilized. Particles used in signalling In vitro work were prepared by reconstitution of lyophilizates in PBS or HBS buffer via sonication. Particles used in reporter, flow cytometry and microscopy experiments were prepared by addition of 1% (by weight) of Rhodamine-PE in ethanol followed by reconstitution as described above. Particles used in magnetic resonance imaging (MRI) and time-resolved fluorescence (TRF) assays were prepared by addition of 10-20% (by weight) of gadolinium or europium chelate-lipids followed by reconstitution as above. Gadolinium-DTPA (18:0 PE-DTPA) was obtained from Avanti Polar Lipids and europium cryptate-NHS was obtained from Aat Bioquest (Supplementary Table S1). Europium cryptate-NHS was further conjugated to phosphatidylethanolamine (PE) to obtain Eu-cryptate-PE according to published and well established protocols. To confirm peptide conjugation, the powder was reconstituted in 1 mL of chloroform and analyzed with TLC (eluent chloroform:methanol:water 65:25:4) detecting with Molybdenum blue (Supplementary Figure S3A) or Dragendorff reagent (Supplementary Figure S3B). Nanoparticles were characterized by dynamic light scattering using Malvern Zetasizer Nano S (Supplementary Table S3). The presence of the peptide bond (N-H) and aliphatic C-H and C-C stretches (lipids) was confirmed by infrared (IR) spectroscopy. Nanoparticles were isolated as a homogeneous population (peak) in gel-filtration (see above) and were used without additional purification.

Data set [3] has as its system RAW cells.
Data set [4] has as its system caspase 3 and heme oxygenase (HO-1) proteins in RAW cells. The experiment in a line: Immunoblot of active caspase 3 and HO-1. Type of data set: cell-based, mouse. As to conditions: 1 µM nanoparticles, 3 h. On the procedure: Immunoblotting was performed as previously described with the following modifications. Briefly, cell lysates were obtained in SDS lysis buffer consisting of 2% SDS, 50 mM Tris-HCl (pH 6.8), 100 mM DTT, 5% Ficoll 400, 0.0001% bromophenol blue and a cocktail of protease inhibitors. Lysates were sonicated on ice before heating at 97 °C for 7 min to completely denature the protein. Protein concentration was determined using IR spectroscopy (which is insensitive to high SDS and DTT concentrations) with a Millipore DirectDetect spectrometer. Lysates were equally loaded at 10-15 µg per lane on BioRad TGX Criterion gels (4-15%) and resolved at 300 V in Tris-Glycine running buffer. Proteins were transferred on nitrocellulose membranes using the BioRad TransBlot turbo according to the manufacturer's instructions. Membranes were blocked in fish serum (Aqua Block) or 5% nonfat dry milk in TBS-T (0.05% Tween 20) and probed overnight at 4 °C with primary antibodies as indicated in Supplementary Table S1. The membranes were washed in TBS-T and incubated with secondary antibodies for 1 h at room temperature. After washing, semi-quantitative visualization of the proteins of interest was enabled using an enhanced chemiluminescence reagent as previously described and the Azure C400 western blot imaging system.
N-acetylcysteine (NAC) served as an antioxidant control. β-Actin was used as a loading control. B) Gene expression analysis in RAW cells treated with 1 µM of vehicle, CCTV and VTCC (peptide nanoparticle control) for 24 h. mRNA expression of mannose receptor (Mrc1), nitric oxide synthase 2 (Nos2), tumor necrosis factor (Tnf), interleukin-1beta (Il1b), and interleukin-6 (Il6) were analyzed. C) Cytokines in cell culture supernatants were analyzed as indicated. D) Schematic representation of transcriptional activation of primary and secondary inflammatory response to lipopolysaccharide (LPS). E) Immunoblot analysis of dose-dependent suppression of IL-1β and HO-1 production by CCTV with and without stimulation by 100 ng/mL LPS for 16 h in bone marrow derived macrophages (BMDMs). GAPDH served as a loading control. F) Chemotaxis assays in bone marrow derived monocytes treated with 5 µM vehicle, CCTV, VTCC or left untreated. Chemotaxis was stimulated by introducing a gradient of recombinant mouse CCL2. Forty (out of 150-300) cell migration tracks are presented for simplicity. Metrics of chemotactic behaviour i.e. velocity, distance travelled, and chemotactic index were quantified as presented in bar graphs. G) BMDMs were pre-treated for 6 h with 5 µM CCTV or VTCC followed by 500 nM CCL2 for the indicated times. […] P values are calculated by t-test and error bars are standard errors of three independent experiments.
On the technique in general: A western blot detects proteins with antibodies after separation by electrophoresis.

In data set [5] the test system is interleukin-1 beta (IL-1β). As to conditions: CANTOS clinical trial, cited from earlier work. An excerpt: Inflammation is a process of immune system activation that is often accompanied by increased migration of immune cells to a site of injury or disease. Inflammation-driven immune cell migration is orchestrated via chemokine receptor-ligand pairs that are ubiquitously expressed in innate immune cells and are hyperactivated in many pathologies.

On to `CC(=O)N[C@@H](CS)C(=O)O` [NAC, N-Acetyl-L-cysteine, reference compound], for which, in data set [1], the GSH levels result is “In contrast to classic antioxidant NAC, CCTV was unable to restore GSH levels” and the GSSG levels result is reported as “In contrast to classic antioxidant NAC, CCTV was unable to restore GSH levels or reduce GSSG”.
Take “ALLC [B4, ALLC peptide-lipid conjugate nanoparticle, N-terminus conjugation]”: in data set [2], the “Mean Polydispersity Index (PDI)” value amounted to 0.151 and the “Size (Mean Z average)” value was 86 nm.
Take “ALLC [C4, ALLC peptide-lipid conjugate nanoparticle, SH conjugation]”: in data set [2], the “Mean Polydispersity Index (PDI)” value was 0.002 and the “Size (Mean Z average)” value is reported as 79 nm.
Take CCTV [N-term CCTV]: the “apoptosis and cell death” value in data set [3] is “significant apoptosis and cell death”. Besides, in data set [4], the “active (cleaved at Asp175, p19/17) caspase 3” value is on record as “upregulation; also recorded: significant apoptosis-associated caspase-3 activity” and the “heme oxygenase-1 (HO-1) levels” value is “upregulation; also recorded: increased”.
Consider “DKQT [B1, DKQT peptide-lipid conjugate nanoparticle, N-terminus conjugation]”, for which, in data set [2], the “Mean Polydispersity Index (PDI)” value was 0.176 and the “Size (Mean Z average)” value turned out to be 204 nm.
For the compound “HLDK [B3, HLDK peptide-lipid conjugate nanoparticle, N-terminus conjugation]”, in data set [2], the “Mean Polydispersity Index (PDI)” value stood at 0.257 and the “Size (Mean Z average)” value was determined as 61 nm.
Take “IVAK [B2, IVAK peptide-lipid conjugate nanoparticle, N-terminus conjugation]”: in data set [2], the “Mean Polydispersity Index (PDI)” value is on record as 0.058 and the “Size (Mean Z average)” value is 53 nm.
“KISV [A4, KISV peptide-lipid conjugate nanoparticle, N-terminus conjugation]”: in data set [2], the “Mean Polydispersity Index (PDI)” value came out at 0.09 and the “Size (Mean Z average)” value is given as 114 nm.
Taken in the same sequence, the figures for “KTIV [A6, KTIV peptide-lipid conjugate nanoparticle, N-terminus conjugation]” were 0.054 and 142 nm.
The like results for “KVSA [A2, KVSA peptide-lipid conjugate nanoparticle, N-terminus conjugation]” were, in that order, 0.124 and 110 nm.
Taken in the same sequence, the figures for “LLIA [A3, LLIA peptide-lipid conjugate nanoparticle, N-terminus conjugation]” were 0.162 and 134 nm.
Consider “LLLI [B6, LLLI peptide-lipid conjugate nanoparticle, N-terminus conjugation]”, for which, in data set [2], the “Mean Polydispersity Index (PDI)” value stood at 0.152 and the “Size (Mean Z average)” value is 223 nm.
For “MDHL [C2, MDHL peptide-lipid conjugate nanoparticle, N-terminus conjugation]”, in data set [2], the “Mean Polydispersity Index (PDI)” value came to 0.111 and the “Size (Mean Z average)” value came out at 134 nm.
For “MKVS [C1, MKVS peptide-lipid conjugate nanoparticle, N-terminus conjugation]”, in data set [2], the “Mean Polydispersity Index (PDI)” value came to 0.159 and the “Size (Mean Z average)” value worked out at 189 nm.
In the case of “QDSM [B5, QDSM peptide-lipid conjugate nanoparticle, N-terminus conjugation]”, in data set [2], the “Mean Polydispersity Index (PDI)” value was determined as 0.169 and the “Size (Mean Z average)” value worked out at 198 nm.
Taken in the same sequence, the figures for “RLAS [A1, RLAS peptide-lipid conjugate nanoparticle, N-terminus conjugation]” were 0.198 and 93 nm.
Turning to VTCC [A5], in data set [2], the “Mean Polydispersity Index (PDI)” value was 0.141 and the “Size (Mean Z average)” value was 76 nm. Moreover, in data set [3], the “apoptosis and cell death” value is “significant apoptosis and cell death”. Also, in data set [4] (listed as N-term VTCC), the “active (cleaved at Asp175, p19/17) caspase 3” value was “upregulation” and the “heme oxygenase-1 (HO-1) levels” value was “upregulation”.
For “canakinumab: interleukin-1 beta (IL-1β) neutralizing monoclonal antibody”, the cardiovascular events entry in data set [5] (cardiovascular disease) is reported as “a reduction in cardiovascular events”. In data set [5], the “risk of death from infection and sepsis” value was “significantly increased risk of death from infection and sepsis”.

These data come from article PMC6838142, “Nano-Antagonist Alleviates Inflammation and Allows for MRI of Atherosclerosis” (Nanotheranostics, 2019).
